Measured values taken from patent US20250361274A1, “PEPTIDE AND PEPTIDE-CONTAINING AGENT” (PEPTIDREAM INC., priority 2022, published 2025).
Numbered stars: 1 amine (or outer) side, 2 acyl side, 3 side chain; on linkers, the order of the positions; unused ones are H or OH. Bridge positions count the residues as written; N and C are the ends. Square brackets hold non-standard residues; d marks the D form. Ends that are not written are not given here. KCOpipzaa = N6-(4-(carboxymethyl)piperazine-1-carbonyl)-L-lysine, O=C(NCCCC[C@H](N[*:1])C(=O)[*:2])N1CCN(CC(=O)[*:3])CC1; Bph3F = (S)-2-amino-3-(3'-fluoro-[1,1'-biphenyl]-4-yl)propanoic acid, O=C([C@H](Cc1ccc(-c2cccc(F)c2)cc1)N[*:1])[*:2]; Cha4tH = (S)-2-amino-3-((1r,4S)-4-hydroxycyclohexyl)propanoic acid, O=C([C@H](C[C@H]1CC[C@H](O[*:3])CC1)N[*:1])[*:2]; 3Pal(6-Ph) = N[C@@H](Cc1ccc(-c2ccccc2)nc1)C(=O)O; Phe(4-COOH) = N[C@@H](Cc1ccc(C(=O)O)cc1)C(=O)O; Bip = N[C@@H](Cc1ccc(-c2ccccc2)cc1)C(=O)O; 3Pal(6-NH2) = Nc1ccc(C[C@H](N)C(=O)O)cn1; Ala(4-THP) = N[C@@H](CC1CCOCC1)C(=O)O; cisHyp = O=C(O)[C@@H]1C[C@H](O)CN1; Hyp = O=C(O)[C@@H]1C[C@@H](O)CN1; NMeF = CN[C@@H](Cc1ccccc1)C(=O)O; 4Pal = N[C@@H](Cc1ccncc1)C(=O)O; Tic = O=C(O)[C@@H]1Cc2ccccc2CN1; Aad = N[C@@H](CCCC(=O)O)C(=O)O; Cha = N[C@@H](CC1CCCCC1)C(=O)O; βAla = NCCC(=O)O

Columns and labels:
[1] = target: T1, BMP7 (Homo sapiens, UniProt P18075); assay: BMP7 signal transduction inhibitory activity: SMAD1 phosphorylation by BMP7 stimulus, A549 cells; assay type: cell-based; details: for aLISA BMP7: A549 cells; for aLISA BMP7 (10 nM) % inh: peptide conc. in assay 1, 10, 100 nM
T1 sequence (P18075 293-431): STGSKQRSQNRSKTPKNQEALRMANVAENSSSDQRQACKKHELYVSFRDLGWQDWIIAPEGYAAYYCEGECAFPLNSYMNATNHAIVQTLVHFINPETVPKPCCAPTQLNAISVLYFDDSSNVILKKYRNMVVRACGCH
Summary of the method: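 SMAD1 phosphorylation readout in A549 cells stimulated with BMP7 (10 nM). Peptides were tested at three levels (e.g. 1/10/100, 10/100/1,000, 100/300/1,000, 10/30/90 nM) or at eight points, 1/3 steps, from 100 or 1,000 nM. Recombinant Noggin served as positive control at matching concentrations.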

[2] = target: T2, BMP4 (Homo sapiens, UniProt P12644); assay: BMP4 signal transduction inhibitory activity: SMAD1 phosphorylation by BMP4 stimulus, AlphaLISA SureFire, A549 cells; assay type: cell-based; details: for aLISA BMP4: A549 cells; for aLISA BMP4 (0.2 nM) % inh: peptide conc. in assay 0.2, 2, 20 nM
T2 sequence (P12644 293-408): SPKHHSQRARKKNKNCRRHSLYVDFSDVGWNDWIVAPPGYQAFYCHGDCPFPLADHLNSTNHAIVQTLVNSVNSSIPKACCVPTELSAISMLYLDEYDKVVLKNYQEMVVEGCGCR

[3] = SMAD1 phosphorylation, BMP7 10 nM
[4] = SMAD1 phosphorylation, BMP4 0.2 nM
[5] = inhibition of SMAD1 phosphorylation by BMP7 stimulus, peptides of Synthesis 2, classes A-D, ND
[6] = inhibition of SMAD1 phosphorylation by BMP4 stimulus, peptides of Synthesis 2, classes A-C, ND
[7] = inhibition of SMAD1 phosphorylation by BMP7 stimulus, AlphaLISA, class by peptide concentration zone
[8] = inhibition of SMAD1 phosphorylation by BMP4 stimulus, AlphaLISA, class by peptide concentration zone
[9] = BMP7 10 nM stimulus, peptide conc. in assay 100, 300, 1000 nM, class symbols
[10] = BMP4 0.2 nM stimulus, peptide conc. in assay 0.02, 0.2, 2 nM, class symbols

With “133 ({CH2CO}-ERVYVD[3Pal(6-NH2)][Bip]PYV[Bip]Y[Phe(4-COOH)][Phe(4-COOH)]SCG-NH2; thioether N-17; not fully specified) [compound 133]” the “aLISA BMP7” value ([1]; inhibition of SMAD1 phosphorylation by BMP7 stimulus, peptides of Synthesis 1, classes E, F, ND) was “E (showed 50% or more of inhibitory activity in a zone to which the peptide was added in an amount of 10 nM)” and the “aLISA BMP4” value ([2]; inhibition of SMAD1 phosphorylation by BMP4 stimulus, peptides of Synthesis 1, classes D-F, ND) was “E (showed less than 50% of inhibitory activity in 0.2 nM-addition zone and showed 50% or more of inhibitory activity in 2 nM-addition zone)”.
For “341 (FG[NMeF]G[Bip]GDD[Cha]S[NMeF]LHCG-NH2; not fully specified (N-terminus, bridges)) [compound 341]”, the “aLISA BMP7 (10 nM) % inh” value [1, 3] was “D (showed less than 30% of inhibitory activity in 10 nM-addition zone and showed 30% or more of inhibitory activity in 100 nM-addition zone)” and the “aLISA BMP4 (0.2 nM) % inh” value [2, 4] was “ND (the inhibitory activity was less than 30% at the maximum concentration evaluated)”.
In the case of “114 (EKVYVKRFPYPFYFFSCG; not fully specified; MOD_RES 2 K represents N6-(4-(Carboxymethyl) piperazine-1-carbonyl)-L-lysine(KCOpipzaa); MOD_RES 6 K represents N6-(4-(Carboxymethyl) piperazine-1-carbonyl)-L-lysine(KCOpipzaa); MOD_RES 8 F represents (S)-3-(1,1'-Biphenyl-4-yl)-2-aminopropanoic acid(Bph); MOD_RES 12 F represents (S)-3-(1,1'-Biphenyl-4-yl)-2-aminopropanoic acid(Bph); MOD_RES 14 F represents (S)-4-(2-amino-2-carboxyethyl)benzoic aci) [compound 114]”, the “aLISA BMP7” value [1, 5] is reported as “C (showed less than 50% of inhibitory activity in 10 nM-addition zone and showed 50% or more of inhibitory activity in 100 nM-addition zone)” and the “aLISA BMP4” value [2, 6] is reported as “A (showed an inhibitory activity of 50% or more in a zone to which the peptide was added to in an amount of 0.2 nM)”.
In the case of “41 ({CH2CO}-A[Tic]VYVDK[Bip]PYP[Bip]Y[Phe(4-COOH)][Phe(4-COOH)]SCG-NH2; thioether N-17) [compound 41]”, the “aLISA BMP7” value [1, 7] is reported as “ND (the inhibitory activity was less than 30% at the maximum concentration evaluated)” and the “aLISA BMP4” value [2, 8] is reported as “C (showed an inhibitory activity of less than 50% in 0.2 nM-addition zone and showed an inhibitory activity of 50% or more in 2 nM-addition zone were defined as B or C)”.
With “356 (FG[NMeF]G[Bip]GDD[Cha]A[NMeF]L[cisHyp]CG-NH2; not fully specified (N-terminus, bridges)) [compound 356]” the “aLISA BMP7 (10 nM) % inh” value [1, 3] was “C (showed less than 30% of inhibitory activity in a zone to which the peptide was added in an amount of 1 nM and showed 30% or more of inhibitory activity in 10 nM-addition zone)” and the “aLISA BMP4 (0.2 nM) % inh” value [2, 4] was “A (showed less than 30% of inhibitory activity in 2 nM-peptide-addition zone and showed 30% or more of inhibitory activity in 20 nM-addition zone)”.
For “64 (Ac-E[KCOpipzaa]VYVD[KCOpipzaa][Bip]PYP[Bip]Y[Phe(4-COOH)][Phe(4-COOH)]SCG-NH2; thioether (positions not given here); not fully specified (bridges)) [compound 64]”, the “aLISA BMP7” value [1, 7] was “D (showed less than 50% of inhibitory activity in 100 nM-addition zone)” and the “aLISA BMP4” value [2, 8] was “C (showed an inhibitory activity of less than 50% in 0.2 nM-addition zone and showed an inhibitory activity of 50% or more in 2 nM-addition zone were defined as B or C)”.
In the case of “246 (ERV[4Pal]VDR[3Pal(6-Ph)]SYV[Bip]Y[Phe(4-COOH)][Phe(4-COOH)]SCG-NH2; not fully specified) [compound 246]”, the “aLIZA BMP7 (10 nM) % Inh” value ([1]; SMAD1 phosphorylation by BMP7 stimulus, peptide conc. in assay 10, 100, 1000 nM, class symbols) is reported as “E (showed less than 30% of inhibitory activity in 100 nM-addition zone and showed 30% or more of inhibitory activity in 1,000 nM-addition zone)” and the “aLIZA BMP4 (0.2 nM) % Inh” value ([2]; SMAD1 phosphorylation by BMP4 stimulus, peptide conc. in assay 0.02, 0.2, 2 nM, class symbols) is reported as “C (showed less than 30% of inhibitory activity in 0.2 nM-addition zone and showed 30% or more of inhibitory activity in 2 nM-addition zone)”.
“122 ({CH2CO}-ERV[Phe(4-COOH)]V[KCOpipzaa]R[Bip]PYP[Bip]Y[Phe(4-COOH)][Phe(4-COOH)]SC[βAla][dE]-OH; thioether N-17; not fully specified) [compound 122]” was tested, and the “aLISA BMP7” value [1, 5] was “C (showed less than 50% of inhibitory activity in 10 nM-addition zone and showed 50% or more of inhibitory activity in 100 nM-addition zone)” and the “aLISA BMP4” value [2, 6] was “A (showed an inhibitory activity of 50% or more in a zone to which the peptide was added to in an amount of 0.2 nM)”.
For “409 (FG[NMeF]G[Bip]GDE[Cha][Aad][NMeF]L[Phe(4-COOH)]C[βAla][dE]) [compound 409]”, the “aLISA BMP7 (10 nM) % inh” value ([1]; BMP7 10 nM stimulus) was “D (showed less than 30% of inhibitory activity in 10 nM-addition zone and showed 30% or more of inhibitory activity in 100 nM-addition zone)” and the “aLISA BMP4 (0.2 nM) % inh” value ([2]; BMP4 0.2 nM stimulus) was “ND (the inhibitory activity was less than 30% at the maximum concentration evaluated)”.
In the case of “294 (ERV[Phe(4-COOH)][Cha4tH][KCOpipzaa]R[3Pal(6-Ph)][KCOpipzaa]Y[Hyp][Bip]Y[Phe(4-COOH)][Phe(4-COOH)]SCG-NH2; not fully specified) [compound 294]”, the “aLIZA BMP7 (10 nM) % inh” value [1, 9] is reported as “F (showed 30% or more of inhibitory activity in 100 nM-addition zone)” and the “aLIZA BMP4 (0.2 nM) % inh” value [2, 10] is reported as “B (showed less than 30% of inhibitory activity in 0.02 nM-addition zone and showed 30% or more of inhibitory activity in 0.2 nM-addition zone)”.
For “34 ({CH2CO}-AKVYVDH[Bip]PYP[Bip]Y[Phe(4-COOH)][Phe(4-COOH)]SCG-NH2; thioether N-17; not fully specified) [compound 34]”, the “aLISA BMP7” value ([1]; 10 nM BMP7, peptides of Synthesis 2, peptide 1, 10, 100 nM) was “C (showed less than 50% of inhibitory activity in 10 nM-addition zone and showed 50% or more of inhibitory activity in 100 nM-addition zone)” and the “aLISA BMP4” value ([2]; SMAD1 phosphorylation, peptides of Synthesis 2, peptide 0.02, 0.2, 2 nM) was “A (showed an inhibitory activity of 50% or more in a zone to which the peptide was added to in an amount of 0.2 nM)”.
For “407 (FG[NMeF]G[Bip]GDE[Cha]Q[NMeF]L[Phe(4-COOH)]C[βAla][dE]) [compound 407]”, the “aLISA BMP7 (10 nM) % inh” value ([1]; BMP7 10 nM stimulus) was “C (showed less than 30% of inhibitory activity in a zone to which the peptide was added in an amount of 1 nM and showed 30% or more of inhibitory activity in 10 nM-addition zone)” and the “aLISA BMP4 (0.2 nM) % inh” value ([2]; BMP4 0.2 nM stimulus) was “ND (the inhibitory activity was less than 30% at the maximum concentration evaluated)”.
“346 (FG[NMeF]G[Bip]GDD[Cha]A[NMeF]IHCG-NH2; not fully specified (N-terminus, bridges)) [compound 346]” was tested, and the “aLISA BMP7 (10 nM) % inh” value [1, 3] was “D (showed less than 30% of inhibitory activity in 10 nM-addition zone and showed 30% or more of inhibitory activity in 100 nM-addition zone)” and the “aLISA BMP4 (0.2 nM) % inh” value [2, 4] was “ND (the inhibitory activity was less than 30% at the maximum concentration evaluated)”.
In the case of “311 ({CH2CO}-ERV[Phe(4-COOH)]V[KCOpipzaa]R[3Pal(6-Ph)][KCOpipzaa]Y[Hyp][Bph3F]Y[Phe(4-COOH)][Phe(4-COOH)]SCG-NH2; thioether N-17 (inferred)) [compound 311]”, the “aLIZA BMP7 (10 nM) % inh” value ([1]; BMP7 10 nM, peptide 10, 100, 1000 nM, Table 6) is reported as “E (showed less than 30% of inhibitory activity in 100 nM-addition zone and showed 30% or more of inhibitory activity in 1,000 nM-addition zone)” and the “aLIZA BMP4 (0.2 nM) % inh” value ([2]; BMP4 0.2 nM, peptide 0.02, 0.2, 2 nM, Table 6) is reported as “B (showed less than 30% of inhibitory activity in 0.02 nM-addition zone and showed 30% or more of inhibitory activity in 0.2 nM-addition zone)”.
With “287 (ERV[Phe(4-COOH)][Ala(4-THP)][KCOpipzaa]R[3Pal(6-Ph)][KCOpipzaa]Y[Hyp][Bip][4Pal][Phe(4-COOH)][Phe(4-COOH)]SCG-NH2; not fully specified (N-terminus, bridges); also: cyclic peptide, ring not given here) [compound 287]” the “aLIZA BMP7 (10 nM) % inh” value [1, 9] was “H (showed less than 30% of inhibitory activity in 300 nM-addition zone and showed 30% or more of inhibitory activity in 1,000 nM-addition zone)” and the “aLIZA BMP4 (0.2 nM) % inh” value [2, 10] was “C (showed less than 30% of inhibitory activity in 0.2 nM-addition zone and showed 30% or more of inhibitory activity in 2 nM-addition zone)”.
